Publication PMC11603662

Columns and labels:
[1] = target: Myc-tagged human long carboxy-terminal CaV2.1 (CaV2.1-6myc) (human) (UniProt O00555); experiment: co-IP; HEK293T cells coexpressing the two proteins, 10 uM MG132 for 24 h; lysates immunoprecipitated with anti-Myc on protein A/G sepharose, 16 h at 4 C; immunoblot
[2] = target: CaV2.1-F1406C (human); experiment: as above
CaV2.1-F1406C (human), sequence (O00555 whole entry, stated change not applied): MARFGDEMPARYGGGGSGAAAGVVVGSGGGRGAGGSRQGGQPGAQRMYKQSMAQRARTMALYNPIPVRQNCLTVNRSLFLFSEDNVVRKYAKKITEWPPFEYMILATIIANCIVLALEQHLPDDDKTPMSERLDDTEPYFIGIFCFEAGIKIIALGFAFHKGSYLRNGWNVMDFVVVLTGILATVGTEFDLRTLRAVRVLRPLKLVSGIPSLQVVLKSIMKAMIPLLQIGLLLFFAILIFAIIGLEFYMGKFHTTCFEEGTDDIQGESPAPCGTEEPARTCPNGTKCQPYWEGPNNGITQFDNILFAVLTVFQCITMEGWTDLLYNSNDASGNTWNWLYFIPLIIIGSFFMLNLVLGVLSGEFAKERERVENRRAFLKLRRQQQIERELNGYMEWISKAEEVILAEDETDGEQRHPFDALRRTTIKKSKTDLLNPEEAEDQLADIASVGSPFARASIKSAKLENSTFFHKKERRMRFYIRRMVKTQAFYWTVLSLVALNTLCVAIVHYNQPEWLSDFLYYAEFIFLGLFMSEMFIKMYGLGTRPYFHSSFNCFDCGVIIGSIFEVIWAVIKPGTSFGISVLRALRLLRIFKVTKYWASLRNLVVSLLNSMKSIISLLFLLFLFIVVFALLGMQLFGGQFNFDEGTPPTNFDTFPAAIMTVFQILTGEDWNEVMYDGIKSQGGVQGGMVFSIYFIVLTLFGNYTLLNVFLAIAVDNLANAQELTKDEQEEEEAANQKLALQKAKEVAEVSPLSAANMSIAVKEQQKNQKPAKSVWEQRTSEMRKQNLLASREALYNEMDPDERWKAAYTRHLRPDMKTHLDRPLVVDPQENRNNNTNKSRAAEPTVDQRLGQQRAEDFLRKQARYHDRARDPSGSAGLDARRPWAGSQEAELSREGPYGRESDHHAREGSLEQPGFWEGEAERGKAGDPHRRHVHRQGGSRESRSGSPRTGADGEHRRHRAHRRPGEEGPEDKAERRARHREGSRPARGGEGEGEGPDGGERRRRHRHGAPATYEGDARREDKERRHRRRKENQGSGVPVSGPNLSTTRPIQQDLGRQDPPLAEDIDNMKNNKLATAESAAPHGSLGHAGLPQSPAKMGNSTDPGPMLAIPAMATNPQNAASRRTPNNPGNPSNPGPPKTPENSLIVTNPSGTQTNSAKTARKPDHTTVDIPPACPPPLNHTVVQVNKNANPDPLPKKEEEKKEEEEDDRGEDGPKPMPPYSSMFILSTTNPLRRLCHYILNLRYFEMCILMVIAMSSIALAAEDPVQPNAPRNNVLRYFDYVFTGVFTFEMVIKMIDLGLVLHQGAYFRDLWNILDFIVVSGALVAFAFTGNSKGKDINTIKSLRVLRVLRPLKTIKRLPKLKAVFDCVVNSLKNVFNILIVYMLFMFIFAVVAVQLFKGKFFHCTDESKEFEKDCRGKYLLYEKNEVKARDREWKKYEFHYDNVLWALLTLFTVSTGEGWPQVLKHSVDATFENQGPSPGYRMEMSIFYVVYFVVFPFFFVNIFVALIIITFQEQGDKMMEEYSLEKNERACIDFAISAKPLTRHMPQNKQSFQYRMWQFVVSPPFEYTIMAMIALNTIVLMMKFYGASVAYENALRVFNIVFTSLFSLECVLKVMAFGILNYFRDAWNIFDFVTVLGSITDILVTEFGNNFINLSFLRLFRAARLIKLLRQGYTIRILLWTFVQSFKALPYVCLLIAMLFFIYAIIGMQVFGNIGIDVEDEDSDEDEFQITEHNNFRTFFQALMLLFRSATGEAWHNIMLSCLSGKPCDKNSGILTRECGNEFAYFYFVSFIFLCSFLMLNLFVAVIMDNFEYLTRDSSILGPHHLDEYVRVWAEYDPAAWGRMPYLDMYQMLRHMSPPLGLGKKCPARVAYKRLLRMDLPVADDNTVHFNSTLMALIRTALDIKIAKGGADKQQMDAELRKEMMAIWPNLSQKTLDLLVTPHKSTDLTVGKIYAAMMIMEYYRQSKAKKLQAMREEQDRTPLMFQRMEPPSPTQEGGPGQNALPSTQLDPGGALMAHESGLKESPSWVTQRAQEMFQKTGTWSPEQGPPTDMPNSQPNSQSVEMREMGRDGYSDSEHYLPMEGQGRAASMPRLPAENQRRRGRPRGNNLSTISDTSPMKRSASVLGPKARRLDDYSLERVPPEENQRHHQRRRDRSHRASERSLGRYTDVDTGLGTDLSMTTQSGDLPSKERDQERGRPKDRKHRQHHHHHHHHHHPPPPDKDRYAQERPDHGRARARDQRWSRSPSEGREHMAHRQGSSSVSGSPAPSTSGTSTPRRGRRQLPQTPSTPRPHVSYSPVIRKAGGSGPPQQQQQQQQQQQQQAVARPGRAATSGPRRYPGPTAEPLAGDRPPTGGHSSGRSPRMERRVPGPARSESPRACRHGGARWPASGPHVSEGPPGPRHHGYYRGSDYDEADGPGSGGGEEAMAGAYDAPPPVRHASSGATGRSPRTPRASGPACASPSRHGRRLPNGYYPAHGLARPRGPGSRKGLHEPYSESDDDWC

For HA-tagged rat Pin1 (HA-Pin1) (enzyme), the normalized coimmunoprecipitated Pin1 protein level (relative to CaV2.1 WT) [1] was 1 and the normalized coimmunoprecipitated Pin1 protein level (relative to CaV2.1 WT) [2] was 1.32.
